“And” between values parts separate entries of the source, which are not always exact repeats. Identical values can stand only once.
Experiments:
[1] = Tolerability of multiple subcutaneous injections of IMMU-132 in nude mice; assay type: in vivo, female nude mice; details: s.c. 2 mg or 500 μg twice a week for four weeks
Protocol: One group of two mice received 2 mg injections (HED=8 mg/kg) while a second group of two animals, 500 μg (HED=2 mg/kg). For comparison, one mouse received only saline injections. Each injection (100 μL) was administered at the same location (i.e., right rear flank) twice a week for four weeks. Mice were weighed on the day of injection and the injection site examined for any signs of toxicity (i.e, rash, ulceration, etc.). If any occur, it would be documented by photographing the area. One day after the last injection, the mice were anesthetized and the injection site photographed (FIG. 12). This was repeated one week after the final injection (FIG. 13).

[2] = Tolerability in Swiss-Webster mice; assay type: in vivo
[3] = assay type: in vivo, human
Protocol: SN-38 was measured by HPLC.

[4] = system: human urinary bladder carcinoma (5637); assay: Efficacy of i.v. vs. s.c. IMMU-132 in 5637 bladder carcinoma xenografts; assay type: in vivo, athymic nude mice; details: for mean tumor volume: day 82; for mice still alive on day 82: N=5; for median survival time (MST): post-therapy initiation
Protocol: 5637 cells were expanded in tissue culture and harvested with trypsin/EDTA. Female athymic nude mice were injected s.c. with 200 μL of 5637 cell suspension mixed 1:1 with matrigel such that 1×10^7 cells was administered to each mouse. Once tumors reached approximately 0.25 cm^3 in size (15 days later), the animals were divided up into three different treatment groups of 4-5 mice each. For the i.v. injections (N=5), mice receive 500 μg i.v. twice a week for four weeks. […] A final group of mice received only saline (N=4) and served as the untreated control. Tumors were measured and mice weighed twice a week. Mice were euthanized for disease progression if their tumor volumes exceeded 1.0 cm^3 in size.

[5] = system: diverse metastatic cancers; assay: Phase I/II clinical trial of IMMU-132 (Example 9): best response and TTP
Protocol: (§1) To optimize cumulative treatment with minimal delays, phase II is focusing on 8 and 10 mg/kg (n=30 and 14, respectively). […] [table]

Calu-3 = assay: Signaling events (p21Waf1/Cip1, p53) in Calu-3 cells; assay type: cell-based, human
Excerpt: SN-38 is known to activate several signaling pathways in cells, leading to apoptosis (e.g., Cusack et al., 2001, Cancer Res 61:3535-40; Liu et al. 2009, Cancer Lett 274:47-53; Lagadec et al., 2008, Br J Cancer 98:335-44). Our initial studies examined the expression of 2 proteins involved in early signaling events (p21^Waf1/Cip1 and p53) and 1 late apoptotic event [cleavage of poly-ADP-ribose polymerase (PARP)] in vitro (not shown).

[6] = system: COLO 205 colonic adenocarcinoma xenografts; details: 0.4 mg/kg SN-38 twice weekly×4 weeks
Protocol: Animals were implanted subcutaneously with different human cancer cell lines. Tumor volume (TV) was determined by measurements in 2 dimensions using calipers, with volumes defined as: L×w^2/2, where L is the longest dimension of the tumor and w is the shortest. […] This dosing frequency reflected a consideration of the conjugate's serum half-life in vitro, to allow a more continuous exposure to the ADC.
Growth curves are shown as percent change in initial TV over time. Statistical analysis of tumor growth was based on area under the curve (AUC). Profiles of individual tumor growth were obtained through linear-curve modeling. An f-test was employed to determine equality of variance between groups before statistical analysis of growth curves. A 2-tailed t-test was used to assess statistical significance between the various treatment groups and controls, except for the saline control, where a 1-tailed t-test was used (significance at P≤0.05). Statistical comparisons of AUC were performed only up to the time that the first animal within a group was euthanized due to progression.

[7] = system: Capan-1 pancreatic adenocarcinoma xenografts; assay: Therapy of Capan-1 tumor xenografts in nude mice; assay type: in vivo, athymic nude mice; details: 0.2 mg/kg SN-38 twice weekly×4 weeks
Protocol: FIG. 3C. […] Animals were treated twice weekly for 4 weeks as indicated by the arrows. Capan-1 mice (N=10) were treated with 0.2 mg/kg ADC and tumors measured weekly.
FIG. 4C. […] Capan-1 (N=10) were treated twice weekly for 4 weeks with the agents indicated.

[8] = Phase I/II clinical trial of IMMU-132 (Example 9): related adverse events
Protocol: as §1

[9] = Pharmacokinetics and biodistribution of 111In-labeled hRS7-CL2A-SN-38 and hRS7 IgG in nude mice bearing SK-MES-1 tumors; assay type: in vivo
Protocol: One group was injected intravenously with 20 μCi (250-μg protein) of ^111In-hRS7-CL2A-SN-38, whereas another group received 20 μCi (250-μg protein) of ^111In-hRS7 IgG. At various timepoints mice (5 per timepoint) were anesthetized, bled via intracardiac puncture, and then euthanized. Tumors and various tissues were removed, weighed, and counted by γ scintillation to determine the percentage injected dose per gram tissue (% ID/g). […] Pharmacokinetic analysis on blood clearance was performed using WinNonLin software (Parsight Corp.).

advanced GI cancers = assay: Phase I/II trial of IMMU-132 in patients with advanced GI cancers: best response by RECIST and time to progression; assay type: in vivo, human; details: for median TTP: SD patients
Protocol: Patients with metastatic cancers were enrolled after failing standard therapy, starting at a dose of 8.0 mg/kg given on days 1 and 8 of a 3-week cycle. […]

[10] = 48 assessable patients (excluding PDC)
[11] = 49 patients reporting related AE
[12] = related AE, N = 47 patients, CTCAE v 4.0
[13] = one gastric cancer patient with SD

IMMU-132: ADC of the humanized hRS7 anti-Trop-2 antibody conjugated by a pH-sensitive linker (CL2A) to SN-38
skin irritation at the site of multiple injections [1]: no evidence of skin irritation | chloride levels, range ([2]; 2 highest dosage groups, upper end of normal range 115 mmol/L): 116 to 127 mmol/L | weight loss ([2]; 2 i.p. doses over 3 days of 4, 8, and 12 mg SN-38/kg): minimal transient weight loss | mice with elevated chloride levels ([2]; 2×8 mg/kg group): 57% | mice with slightly elevated glucose levels ([2]; 2×8 mg/kg, of 7 mice): 5 | elevated glucose levels, range ([2]; 2×8 mg/kg, upper end of normal 263 mg/dL): 273 to 320 mg/dL | mice with elevated chloride levels ([2]; 2×12 mg/kg group): 100% | aspartate transaminase (AST) ([2]; seven days after treatment, all 3 treatment groups, normal limit 298 U/L): rose above normal levels | clearance of intact conjugate vs. the IgG ([3]; ELISA): cleared more quickly than the IgG | time for the conjugate to clear from the serum ([3]; patients): ≤ 3 days | mean tumor volume ([4]; i.v. 500 μg twice a week for four weeks): 0.066±0.076 cm^3 | mice still alive on day 82 ([4]; i.v.): 5 | median survival time (MST) ([4]; i.v.): > 67 days | mean tumor volume ([4]; s.c. 500 μg twice weekly for four weeks): 0.111±0.057 cm^3 | mice still alive on day 82 ([4]; s.c.): 5 | median survival time (MST) ([4]; s.c.): > 67 days | patients with SD ([5]; 13 CT-assessable PDC patients): 62% | patients with disease response (total) [5, 10]: 79% | patients with partial response (PR) [5, 10]: 15% | median time to progression (TTP) ([5]; PDC patients): 12.7 wks and 11.9 wks | increase of p21Waf1/Cip1 expression over free SN-38 (Calu-3): more than 2 fold | time of p53 upregulation (Calu-3): ≤ 24 h | tumor growth vs. saline and hA20-CL2A-SN-38 [6]: significantly inhibited tumor growth | tumor growth vs. saline and hA20-CL2A-SN-38 [7]: significantly inhibited tumor growth | mice tumor-free at the end of the study ([7]; day 140): 50% | alopecia [8, 11]: 40% | diarrhea [8, 11]: 47% | fatigue [8, 11]: 55% | nausea [8, 11]: 53% | neutropenia G4 [8, 11]: 4% | vomiting [8, 11]: 32% | Abdominal pain, Grade 3, patients (%) [8, 12]: 0 | Abdominal pain, Grade 4, patients (%) [8, 12]: 0 | Anemia, Grade 3, patients (%) [8, 12]: 2 (4%) | Anemia, Grade 4, patients (%) [8, 12]: 0 | Deep vein thrombosis, Grade 3, patients (%) [8, 12]: 1 (2%) | Deep vein thrombosis, Grade 4, patients (%) [8, 12]: 0 | Diarrhea, Grade 3, patients (%) [8, 12]: 4 (9%) | Diarrhea, Grade 4, patients (%) [8, 12]: 0 | Dysgeusia, Grade 3, patients (%) [8, 12]: 0 | Dysgeusia, Grade 4, patients (%) [8, 12]: 0 | Fatigue, Grade 3, patients (%) [8, 12]: 4 (9%) | Fatigue, Grade 4, patients (%) [8, 12]: 0 | Febrile Neutropenia, Grade 3, patients (%) [8, 12]: 1 (2%) | Febrile Neutropenia, Grade 4, patients (%) [8, 12]: 2 (4%) | Hypokalemia, Grade 3, patients (%) [8, 12]: 1 (2%) | Hypokalemia, Grade 4, patients (%) [8, 12]: 0 | Nausea, Grade 3, patients (%) [8, 12]: 0 | Nausea, Grade 4, patients (%) [8, 12]: 0 | Neutropenia, Grade 3, patients (%) [8, 12]: 11 (24%) | Neutropenia, Grade 4, patients (%) [8, 12]: 2 (4%) | Pyrexia, Grade 3, patients (%) [8, 12]: 0 | Pyrexia, Grade 4, patients (%) [8, 12]: 0 | Vomiting, Grade 3, patients (%) [8, 12]: 1 (2%) | Vomiting, Grade 4, patients (%) [8, 12]: 0 | WBC Decrease, Grade 3, patients (%) [8, 12]: 1 (2%) | WBC Decrease, Grade 4, patients (%) [8, 12]: 0 | amount in the tumor compared with hRS7 IgG ([9]; 72 hours (peak uptake)): similar | half-life shorter than unconjugated hRS7 ([9]; i.v., 250-μg protein): ~40% | PR (partial response) as best response by RECIST, number of patients (advanced GI cancers; 29 CRC patients (9 at 10 mg/kg, 20 at 8 mg/kg)): 1 | target lesion change of the PR (advanced GI cancers; CRC patient with PR): −65% | time to progression (TTP) for the PR (advanced GI cancers; CRC patient with PR): ≥ 50 wks | median TTP (advanced GI cancers; CRC with KRAS mutations): ≥ 19.1 wks | median TTP for the SD patients (advanced GI cancers; CRC, 14 SD patients (5 continuing)): ≥ 21 wks | TTP of the PR (advanced GI cancers; esophageal cancer): ≥ 30 wks | duration of SD in individual patients (advanced GI cancers; esophageal cancer): ≥ 17.4 wks and 21.9 wks and 26.3 wks and 29.9 wks | ongoing TTP (advanced GI cancers; [13]): ≥ 29 wks | target lesion reduction (advanced GI cancers; [13]): 19% | median TTP (advanced GI cancers; pancreatic cancer): 15.0 wks
